Patent US20180092975A1

Columns and labels:
[1] = target: human PD-1 expressed on cells (human) (UniProt Q15116); assay: flow cytometry on CHO cells expressing human PD-1, detection with anti-human IgG Fc, PE GeoMFI; design: unit not given here
[2] = target: cyno PD-1 expressed on cells (cynomolgus monkey) (UniProt B0LAJ3); assay: flow cytometry on CHO cells expressing cyno PD-1, detection with anti-human IgG Fc, PE GeoMFI; design: unit not given here
Sequence of UniProt B0LAJ3 (B0LAJ3 entry or part of it limits assumed): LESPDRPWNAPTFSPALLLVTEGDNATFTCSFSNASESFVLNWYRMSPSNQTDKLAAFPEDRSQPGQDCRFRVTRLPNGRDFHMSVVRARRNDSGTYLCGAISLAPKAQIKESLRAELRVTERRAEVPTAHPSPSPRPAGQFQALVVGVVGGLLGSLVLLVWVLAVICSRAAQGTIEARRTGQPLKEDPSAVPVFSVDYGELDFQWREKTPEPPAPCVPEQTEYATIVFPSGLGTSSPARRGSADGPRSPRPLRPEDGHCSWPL

Sequence of UniProt Q15116 (Q15116 25-198 limits assumed): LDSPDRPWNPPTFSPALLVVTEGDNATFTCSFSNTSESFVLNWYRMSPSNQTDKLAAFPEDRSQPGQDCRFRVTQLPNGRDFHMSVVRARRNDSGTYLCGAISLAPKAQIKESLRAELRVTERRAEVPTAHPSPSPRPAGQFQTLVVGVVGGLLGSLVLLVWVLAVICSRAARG

LogEC50 [1]: -7.75 | LogEC50 [2]: -6.89
Substance: huIgG1 Fc
